Values joined by “and” are separate entries in the source; they are usually repeats but may differ in a detail not shown here. Equal entries are not always repeated. Blank lines part the entries; values can stand above or below the substance they belong to.
Key:
[1] = molecular target: hyperphosphorylated tau phosphorylated at serine 396 in human Alzheimer brain (extracts and sections) (human) (UniProt P10636); experiment: immunodepletion of Alzheimer brain extract with antibody on Protein G Dynabeads; western blot
hyperphosphorylated tau phosphorylated at serine 396 in human Alzheimer brain (extracts and sections) (human), sequence (P10636 other isoform, or with tags, fused parts or gaps limits assumed): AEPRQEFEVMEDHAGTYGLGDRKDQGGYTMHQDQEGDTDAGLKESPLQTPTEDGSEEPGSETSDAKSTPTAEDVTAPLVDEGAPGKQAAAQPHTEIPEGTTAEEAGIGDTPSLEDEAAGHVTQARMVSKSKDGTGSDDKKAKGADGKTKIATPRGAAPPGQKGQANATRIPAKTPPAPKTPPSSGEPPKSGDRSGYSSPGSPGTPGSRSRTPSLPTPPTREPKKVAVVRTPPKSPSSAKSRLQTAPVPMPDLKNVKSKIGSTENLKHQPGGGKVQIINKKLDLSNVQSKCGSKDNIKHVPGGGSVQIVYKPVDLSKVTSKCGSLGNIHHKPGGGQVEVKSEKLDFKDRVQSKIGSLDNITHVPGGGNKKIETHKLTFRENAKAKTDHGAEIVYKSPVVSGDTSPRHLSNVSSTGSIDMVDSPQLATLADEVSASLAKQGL

[2] = molecular target: pathological hyperphosphorylated tau from human Alzheimer's disease brain, sarkosyl-insoluble P3 fraction (human) (UniProt P10636); experiment: MSD, AD-P3 coated plate (FIG. 34); C10-2 10000 ng/ml + PBS/0.1% BSA (no competitor)
pathological hyperphosphorylated tau from human Alzheimer's disease brain, sarkosyl-insoluble P3 fraction (human), sequence (P10636 other isoform, or with tags, fused parts or gaps limits assumed): as above

[3] = molecular target: pathological hyperphosphorylated tau from human Alzheimer's disease brain, sarkosyl-insoluble P3 fraction (human) (UniProt P10636); experiment: MSD, AD-P3 coated plate (FIG. 34); C10-2 30 ng/ml + 10 µM tau peptide as competitor
[4] = molecular target: hyperphosphorylated tau phosphorylated at serine 396 in human Alzheimer brain (extracts and sections) (human) (UniProt P10636); experiment: immunodepletion of Alzheimer brain extract; western blot; compared to hHel control antibody
[5] = molecular target: pathological hyperphosphorylated tau from human Alzheimer's disease brain, sarkosyl-insoluble P3 fraction (human) (UniProt P10636); experiment: MSD, AD-P3 coated plate (FIG. 34); C10-2 300 ng/ml + 10 µM tau peptide as competitor
[6] = molecular target: pathological hyperphosphorylated tau from human Alzheimer's disease brain, sarkosyl-insoluble P3 fraction (human) (UniProt P10636); experiment: MSD, AD-P3 coated plate (FIG. 34); C10-2 10 ng/ml + 10 µM tau peptide as competitor
[7] = molecular target: pathological hyperphosphorylated tau from human Alzheimer's disease brain, sarkosyl-insoluble P3 fraction (human) (UniProt P10636); experiment: MSD, AD-P3 coated plate (FIG. 34); C10-2 100 ng/ml + 10 µM tau peptide as competitor
[8] = molecular target: pathological hyperphosphorylated tau from human Alzheimer's disease brain, sarkosyl-insoluble P3 fraction (human) (UniProt P10636); experiment: MSD, AD-P3 coated plate (FIG. 34); C10-2 3 ng/ml + PBS/0.1% BSA (no competitor)
[9] = molecular target: pathological hyperphosphorylated tau from human Alzheimer's disease brain, sarkosyl-insoluble P3 fraction (human) (UniProt P10636); experiment: MSD, AD-P3 coated plate (FIG. 34); C10-2 10000 ng/ml + 10 µM tau peptide as competitor
[10] = molecular target: pathological hyperphosphorylated tau from human Alzheimer's disease brain, sarkosyl-insoluble P3 fraction (human) (UniProt P10636); experiment: fluid phase MSD ELISA: inhibition of tau antigen capture
[11] = molecular target: pathological hyperphosphorylated tau from human Alzheimer's disease brain, sarkosyl-insoluble P3 fraction (human) (UniProt P10636); experiment: fluid phase inhibition of p-tau antigen capture in mC10-2 coated plate (comparison with PHF-13)
[12] = molecular target: pathological hyperphosphorylated tau from human Alzheimer's disease brain, sarkosyl-insoluble P3 fraction (human) (UniProt P10636); experiment: MSD ELISA on immobilised P3 tau; ratio of binding to AD over healthy control at saturation
[13] = molecular target: pathological hyperphosphorylated tau from human Alzheimer's disease brain, sarkosyl-insoluble P3 fraction (human) (UniProt P10636); experiment: MSD, AD-P3 coated plate (FIG. 34); C10-2 100 ng/ml + PBS/0.1% BSA (no competitor)
[14] = molecular target: pathological hyperphosphorylated tau from human Alzheimer's disease brain, sarkosyl-insoluble P3 fraction (human) (UniProt P10636); experiment: MSD, AD-P3 coated plate (FIG. 34); C10-2 10 ng/ml + PBS/0.1% BSA (no competitor)
[15] = molecular target: pathological hyperphosphorylated tau from human Alzheimer's disease brain, sarkosyl-insoluble P3 fraction (human) (UniProt P10636); experiment: fluid phase inhibition of Ptau antigen capture in C10-2 coated plate (comparison with mD1.2)
[16] = molecular target: pathological hyperphosphorylated tau from human Alzheimer's disease brain, sarkosyl-insoluble P3 fraction (human) (UniProt P10636); experiment: fluid phase MSD ELISA: inhibition of AD-P3 tau antigen capture
[17] = molecular target: pathological hyperphosphorylated tau from human Alzheimer's disease brain, sarkosyl-insoluble P3 fraction (human) (UniProt P10636); experiment: MSD, AD-P3 coated plate (FIG. 34); C10-2 3 ng/ml + 10 µM tau peptide as competitor
[18] = molecular target: pathological hyperphosphorylated tau from human Alzheimer's disease brain, sarkosyl-insoluble P3 fraction (human) (UniProt P10636); experiment: fluid phase MSD ELISA: antibody mixed with AD P3 in solution, capture on C10-2 coated plates
[19] = molecular target: pathological hyperphosphorylated tau from human Alzheimer's disease brain, sarkosyl-insoluble P3 fraction (human) (UniProt P10636); experiment: MSD, AD-P3 coated plate (FIG. 34); C10-2 1000 ng/ml + 10 µM tau peptide as competitor
[20] = molecular target: pathological hyperphosphorylated tau from human Alzheimer's disease brain, sarkosyl-insoluble P3 fraction (human) (UniProt P10636); experiment: MSD, AD-P3 coated plate (FIG. 34); C10-2 300 ng/ml + PBS/0.1% BSA (no competitor)
[21] = molecular target: pathological hyperphosphorylated tau from human Alzheimer's disease brain, sarkosyl-insoluble P3 fraction (human) (UniProt P10636); experiment: MSD, AD-P3 coated plate (FIG. 34); C10-2 1000 ng/ml + PBS/0.1% BSA (no competitor)
[22] = molecular target: pathological hyperphosphorylated tau from human Alzheimer's disease brain, sarkosyl-insoluble P3 fraction (human) (UniProt P10636); experiment: MSD, AD-P3 coated plate (FIG. 34); C10-2 30 ng/ml + PBS/0.1% BSA (no competitor)
[23] = molecular target: hyperphosphorylated tau phosphorylated at serine 396 in human Alzheimer brain (extracts and sections) (human) (UniProt P10636); experiment: immunodepletion of Alzheimer brain extract; western blot
[24] = molecular target: total tau in Alzheimer brain extract (human) (UniProt P10636); experiment: as above
total tau in Alzheimer brain extract (human), sequence (P10636 other isoform, or with tags, fused parts or gaps limits assumed): as above

[25] = molecular target: aggregated Tau in Alzheimer brain extract (Cisbio assay) (human) (UniProt P10636); experiment: immunodepletion of AD extract; Cisbio tau aggregation assay; in comparison to hHel antibody
aggregated Tau in Alzheimer brain extract (Cisbio assay) (human), sequence (P10636 other isoform, or with tags, fused parts or gaps limits assumed): as above

[26] = molecular target: hyper-phosphorylated P301L mutant human 4R0N tau from rTg4510 mouse brain (64 and 70 kDa species; P3 / brain extract) (human) (UniProt P10636); experiment: MSD ELISA on immobilised P3; ratio of binding to Tg4510 over wt mouse material
hyper-phosphorylated P301L mutant human 4R0N tau from rTg4510 mouse brain (64 and 70 kDa species; P3 / brain extract) (human), sequence (P10636 other isoform, or with tags, fused parts or gaps P301L P301L): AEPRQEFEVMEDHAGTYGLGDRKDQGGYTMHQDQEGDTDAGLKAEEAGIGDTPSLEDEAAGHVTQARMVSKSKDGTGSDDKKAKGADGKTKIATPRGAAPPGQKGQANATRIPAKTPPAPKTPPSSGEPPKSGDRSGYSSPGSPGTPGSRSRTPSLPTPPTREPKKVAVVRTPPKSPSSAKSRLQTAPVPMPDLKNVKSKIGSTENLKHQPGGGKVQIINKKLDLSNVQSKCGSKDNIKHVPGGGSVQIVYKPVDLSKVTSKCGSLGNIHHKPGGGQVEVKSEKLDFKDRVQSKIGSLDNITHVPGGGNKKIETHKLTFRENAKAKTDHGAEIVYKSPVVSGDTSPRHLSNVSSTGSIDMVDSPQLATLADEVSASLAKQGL

[27] = molecular target: pathological hyperphosphorylated tau from human Alzheimer's disease brain, sarkosyl-insoluble P3 fraction (human) (UniProt P10636); experiment: MSD, AD-P3 coated plate (FIG. 34); PHF 13 at '1000000' (unit inferred) + 10 µM tau peptide as competitor
[28] = molecular target: pathological hyperphosphorylated tau from human Alzheimer's disease brain, sarkosyl-insoluble P3 fraction (human) (UniProt P10636); experiment: MSD, AD-P3 coated plate (FIG. 34); PHF 13 at '100000' (unit inferred) + PBS/0.1% BSA (no competitor)
[29] = molecular target: pathological hyperphosphorylated tau from human Alzheimer's disease brain, sarkosyl-insoluble P3 fraction (human) (UniProt P10636); experiment: MSD, AD-P3 coated plate (FIG. 34); PHF 13 at '300000' (unit inferred) + 10 µM tau peptide as competitor
[30] = molecular target: pathological hyperphosphorylated tau from human Alzheimer's disease brain, sarkosyl-insoluble P3 fraction (human) (UniProt P10636); experiment: MSD, AD-P3 coated plate (FIG. 34); PHF 13 at '10000M' (unit not explained) + 10 µM tau peptide as competitor
[31] = molecular target: pathological hyperphosphorylated tau from human Alzheimer's disease brain, sarkosyl-insoluble P3 fraction (human) (UniProt P10636); experiment: MSD, AD-P3 coated plate (FIG. 34); PHF 13 at '3000' (unit inferred) + 10 µM tau peptide as competitor
[32] = molecular target: pathological hyperphosphorylated tau from human Alzheimer's disease brain, sarkosyl-insoluble P3 fraction (human) (UniProt P10636); experiment: MSD, AD-P3 coated plate (FIG. 34); PHF 13 at '1000000' (unit inferred) + PBS/0.1% BSA (no competitor)
[33] = molecular target: pathological hyperphosphorylated tau from human Alzheimer's disease brain, sarkosyl-insoluble P3 fraction (human) (UniProt P10636); experiment: MSD, AD-P3 coated plate (FIG. 34); PHF 13 at '100000' (unit inferred) + 10 µM tau peptide as competitor
[34] = molecular target: pathological hyperphosphorylated tau from human Alzheimer's disease brain, sarkosyl-insoluble P3 fraction (human) (UniProt P10636); experiment: MSD, AD-P3 coated plate (FIG. 34); PHF 13 at '30000' (unit inferred) + 10 µM tau peptide as competitor
[35] = molecular target: pathological hyperphosphorylated tau from human Alzheimer's disease brain, sarkosyl-insoluble P3 fraction (human) (UniProt P10636); experiment: MSD, AD-P3 coated plate (FIG. 34); PHF 13 at '1000' (unit inferred) + 10 µM tau peptide as competitor
[36] = molecular target: pathological hyperphosphorylated tau from human Alzheimer's disease brain, sarkosyl-insoluble P3 fraction (human) (UniProt P10636); experiment: fluid phase inhibition of p-tau antigen capture in mC10-2 coated plate
[37] = molecular target: pathological hyperphosphorylated tau from human Alzheimer's disease brain, sarkosyl-insoluble P3 fraction (human) (UniProt P10636); experiment: MSD, AD-P3 coated plate (FIG. 34); PHF 13 at '300000' (unit inferred) + PBS/0.1% BSA (no competitor)
[38] = molecular target: pathological hyperphosphorylated tau from human Alzheimer's disease brain, sarkosyl-insoluble P3 fraction (human) (UniProt P10636); experiment: MSD, AD-P3 coated plate (FIG. 34); PHF 13 at '30000' (unit inferred) + PBS/0.1% BSA (no competitor)
[39] = molecular target: pathological hyperphosphorylated tau from human Alzheimer's disease brain, sarkosyl-insoluble P3 fraction (human) (UniProt P10636); experiment: MSD, AD-P3 coated plate (FIG. 34); PHF 13 at '3000' (unit inferred) + PBS/0.1% BSA (no competitor)
[40] = molecular target: pathological hyperphosphorylated tau from human Alzheimer's disease brain, sarkosyl-insoluble P3 fraction (human) (UniProt P10636); experiment: MSD, AD-P3 coated plate (FIG. 34); PHF 13 at '10000' (unit inferred) + PBS/0.1% BSA (no competitor)
[41] = molecular target: pathological hyperphosphorylated tau from human Alzheimer's disease brain, sarkosyl-insoluble P3 fraction (human) (UniProt P10636); experiment: MSD, AD-P3 coated plate (FIG. 34); PHF 13 at '1000' (unit inferred) + PBS/0.1% BSA (no competitor)
[42] = molecular target: normal P301L mutant human 4R0N tau from rTg4510 mouse brain (55 kDa band) (human) (UniProt P10636); experiment: immunodepletion of rTg4510 brain extracts; western blot quantification (FIG. 14)
normal P301L mutant human 4R0N tau from rTg4510 mouse brain (55 kDa band) (human), sequence (P10636 other isoform, or with tags, fused parts or gaps P301L P301L): as above

HJ8.5 (antibody), sequence (VH): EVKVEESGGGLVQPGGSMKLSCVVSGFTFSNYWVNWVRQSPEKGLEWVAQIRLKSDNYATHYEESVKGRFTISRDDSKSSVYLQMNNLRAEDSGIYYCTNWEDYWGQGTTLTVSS
HJ8.5 (antibody), sequence (VL): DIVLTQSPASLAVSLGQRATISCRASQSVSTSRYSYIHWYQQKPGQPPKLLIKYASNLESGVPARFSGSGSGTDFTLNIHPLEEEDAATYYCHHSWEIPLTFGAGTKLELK

percent removed by immunodepletion [1]: 90% | mean Signal [2]: 51200 signal | signal [2]: 51300 signal and 51100 signal | mean Signal [3]: 345 signal | signal [3]: 384 signal and 306 signal | percent removed by immunodepletion [4]: 93% | mean Signal [5]: 407 signal | signal [5]: 434 signal and 379 signal | mean Signal [6]: 383 signal | signal [6]: 398 signal and 367 signal | mean Signal [7]: 357 signal | signal [7]: 401 signal and 313 signal | mean Signal [8]: 1880 signal | signal [8]: 1890 signal and 1870 signal | mean Signal [9]: 870 signal | signal [9]: 920 signal and 820 signal | IC50 [10]: 320 nM | IC50 [11]: 10 to 20 nM | AD/ctrl [12]: > 100 fold | mean Signal [13]: 21800 signal | signal [13]: 21900 signal and 21700 signal | mean Signal [14]: 5720 signal | signal [14]: 5860 signal and 5580 signal | IC50 [15]: 10 to 20 nM | IC50 [16]: 3 nM | mean Signal [17]: 366 signal | signal [17]: 384 signal and 348 signal | IC50 [18]: 3 nM | mean Signal [19]: 451 signal | signal [19]: 462 signal and 439 signal | mean Signal [20]: 30400 signal | signal [20]: 30300 signal and 30500 signal | mean Signal [21]: 38500 signal | signal [21]: 38200 signal and 38800 signal | mean Signal [22]: 11900 signal | signal [22]: 12000 signal and 11800 signal
Substance: Antibody C10-2 (murine)

percent removed by immunodepletion [23]: 88% | percent removed by immunodepletion [24]: 89% | AD/ctrl [12]: 3 fold | percent of aggregated Tau removed [25]: 99% | TG/wt [26]: 51 fold
Substance: HJ8.5 (antibody)

mean Signal [27]: 280 signal | signal [27]: 284 signal and 276 signal | mean Signal [28]: 852 signal | signal [28]: 856 signal and 847 signal | mean Signal [29]: 299 signal | signal [29]: 305 signal and 292 signal | mean Signal [30]: 953 signal | signal [30]: 1020 signal and 886 signal | mean Signal [31]: 2180 signal | signal [31]: 2280 signal and 2080 signal | mean Signal [32]: 335 signal | signal [32]: 358 signal and 312 signal | mean Signal [33]: 355 signal | signal [33]: 370 signal and 340 signal | mean Signal [34]: 481 signal | signal [34]: 472 signal and 490 signal | mean Signal [35]: 6900 signal | signal [35]: 7540 signal and 6250 signal | IC50 [36]: 500 to 1000 nM | mean Signal [37]: 560 signal | signal [37]: 568 signal and 551 signal | mean Signal [38]: 1580 signal | signal [38]: 1660 signal and 1500 signal | mean Signal [39]: 5790 signal | signal [39]: 6130 signal and 5460 signal | mean Signal [40]: 2880 signal | signal [40]: 2900 signal and 2860 signal | mean Signal [41]: 12600 signal | signal [41]: 13700 signal and 11600 signal
Substance: PHF13 (commercially available antibody for Tau phosphorylated at Ser 396)

percent reduction of the 55 kDa band [42]: 74%
Substance: Tau5 (commercial total Tau antibody, Invitrogen)
